The values that follow come from publication doi:10.1101/481887.

One assay deals with Gly-C2-iLID. Put plainly: confocal imaging of light-induced recruitment to GUV membranes.
For assay [1], the target named is COPY^o2 (Atto532-stathmin-Atto647N). Kind of assay: other fluorescence titration.
The target of another assay is phosphorylated COPY^o2. Kind of assay: other fluorescence titration.

Broadly, the Kd is the constant that tells how readily two partners part at equilibrium. Read a high Kd as weaker binding. In turn, “SspB (Stringent starvation protein B) (from UniProt P0AFZ3 1-165) (natural protein)” yielded a Kd in the assay with Gly-C2-iLID of 360 nM.
Usually stoichiometry N stands for a count of units in the complex or per binding partner. Turning to “α,β-tubulin dimers (from UniProt P02550 1-451; P02554 1-445) (complex)”, in assay [1], the KD, high affinity site came to 30 nM; the KD, low affinity site worked out at 2000 nM; the k off,stath (1:1 stathmin-tubulin complex; site not named) was 0.048 s⁻¹; the k on,stath (1:1 stathmin-tubulin complex; site not named) was determined as 16 s⁻¹. In assay [1], this substance showed a stoichiometry N of 2. In the assay with phosphorylated COPY^o2, the k off,p-stath (1:1 phosphorylated stathmin-tubulin complex; site not named) was determined as 2.3 s⁻¹ and the k on,p-stath (1:1 phosphorylated stathmin-tubulin complex; site not named) stood at 1.8 s⁻¹.
